Measured values: patent US7799326B2, “Methods and compositions for cathespin k complex-mediated disorders” (Mount Sinai School of Medicine, priority 2001, dated 2010)
“Also recorded” adds a separate entry of the source.

Assays:
[1] = Mobility shift assay of complex formation of proteases with CSA; assay type: binding
Experimental: The gel was run at about 25° C. 55 V, 250 mA for 30 min, then dried and developed the radio signal on a film.

gelatin = assay: Gelatin hydrolysis by cathepsin K mutant proteins; assay type: biochemical
type I collagen = assay: Type I collagen hydrolysis by cathepsin K mutant proteins; assay type: biochemical, bovine; details: 800 nM protein, 0.4 mg/ml collagen, 0.15% CSA, 8 h at 28 C, pH 5.5
Experimental: (§1) The mutant proteins were generated to characterize cluster 1:K77A, R79A (mutant 1), K103, K106A, R108A, R111A, (mutant 2), K77A, R79A, K103, K106A, R108A,R111A (mutant 3), K77A, R79A, K103, K106A, R108A,R111A, K122A, R127A (mutant 4). Mutant proteins were expressed in Pichia pastoris and the activity of the protein was determined towards two synthetic peptide substrates, gelatin and type I native collagen. […] The cleavage products were separated by SDS polyacrylamide electrophoresis using 4-20% Tris Glycine gels.

[2] = Activity of cathepsin K mutant proteins towards synthetic peptide substrates; assay type: biochemical; details: Example 17 mutants
Experimental: as §1

B1: Cat S: human cathepsin S, closely related cysteine protease (protein, UniProt P25774 115-331, looked up)
Cathepsin S: LPDSVDWREKGCVTEVKYQGSCGACWAFSAVGALEAQLKLKTGKLVSLSAQNLVDCSTEKYGNKGCNGGFMTTAFQYIIDNKGIDSDASYPYKAMDQKCQYDSKYRAATCSKYTELPYGREDVLKEAVANKGPVSVGVDARHPSFFLYRSGVYYEPSCTQNVNHGVLVVGYGDLNGKEYWLVKNSWGHNFGEEGYIRMARNKGNHCGIASFPSYPEI
complex formation with CSA ([1]; 50 ng [125I]DCG-04 labeled protease, 0.1% CSA): Only cathepsin K formed a stable complex

B2: Y212C: pycnodysostosis-causing cathepsin K mutant (protein, UniProt P43235 115-329, looked up, variant Y212C)
Cathepsin K: APDSVDYRKKGYVTPVKNQGQCGSCWAFSSVGALEGQLKKKTGKLLNLSPQNLVDCVSENDGCGGGYMTNAFQYVQKNRGIDSEDAYPYVGQEESCMCNPTGKAAKCRGYREIPEGNEKALKRAVARVGPVSVAIDASLTSFQFYSKGVYYDESCNSDNLNHAVLAVGYGIQKGNKHWIIKNSWGENWGNKGYILMARNKNNACGIANLASFPKM
gelatin hydrolysis by the protease (gelatin; 1 nM Y212C, 0.15% CSA, 37 C for 8 h): exhibited gelatinase activity | complex formation with CSA ([1]; 0.2 μg/ml and 1000 μg/ml CSA): unable to form a complex with CSA

B3: mutant 1: cathepsin K mutant K77A, R79A (protein, UniProt P43235 115-329, looked up, variant K77A R79A)
Cathepsin K: APDSVDYRKKGYVTPVKNQGQCGSCWAFSSVGALEGQLKKKTGKLLNLSPQNLVDCVSENDGCGGGYMTNAFQYVQANAGIDSEDAYPYVGQEESCMYNPTGKAAKCRGYREIPEGNEKALKRAVARVGPVSVAIDASLTSFQFYSKGVYYDESCNSDNLNHAVLAVGYGIQKGNKHWIIKNSWGENWGNKGYILMARNKNNACGIANLASFPKM
degradation of type I collagen by the protease (type I collagen): complete degradation of type I collagen | degradation of type I collagen by the protease (type I collagen; listed as Mutant 1): did not reveal an inhibition

B4: mutant 5: cathepsin K mutant K9E (protein, UniProt P43235 115-329, looked up, variant K9E)
Cathepsin K: APDSVDYREKGYVTPVKNQGQCGSCWAFSSVGALEGQLKKKTGKLLNLSPQNLVDCVSENDGCGGGYMTNAFQYVQKNRGIDSEDAYPYVGQEESCMYNPTGKAAKCRGYREIPEGNEKALKRAVARVGPVSVAIDASLTSFQFYSKGVYYDESCNSDNLNHAVLAVGYGIQKGNKHWIIKNSWGENWGNKGYILMARNKNNACGIANLASFPKM
activity towards gelatin compared with wild type (gelatin; Example 17 mutants): fully active | activity towards synthetic peptide substrates compared with wild type [2]: fully active | complex formation with CSA ([1]; Example 17 mutants, gel-mobility assay): still revealed complex formation | degradation of type I collagen by the protease (type I collagen): strongly inhibited; also recorded: significantly reduced
